Data reported in patent publication US20260258115A1 (MAPP BIOPHARMACEUTICAL, published 2026).

Legend:
[1] = biological target: RSV prefusion F (preF), DS-Cav1 (Respiratory syncytial virus, UniProt P03420 26-513); experiment: BLI, IgG on anti-human IgG sensor, 100 nM antigen
[2] = biological target: RSV F on RSV-A2 virus (Respiratory syncytial virus, RSV-A2, UniProt P03420 26-574); experiment: cell-based or functional assay
[3] = biological target: RSV postfusion F (postF), F ΔFP (Respiratory syncytial virus, UniProt P03420 26-513); experiment: BLI, IgG on anti-human IgG sensor
[4] = biological target: RSV postfusion F (postF), F deltaFP (respiratory syncytial virus, UniProt P03420 26-513); experiment: BLI, IgG on sensor
[5] = biological target: RSV prefusion F (preF), DS-Cav1 (respiratory syncytial virus, UniProt P03420 26-513); experiment: BLI, IgG on sensor, 100 nM antigen
[6] = biological target: RSV fusion glycoprotein (RSV F) on RSV-A2 virus (respiratory syncytial virus, UniProt P03420 26-574); experiment: cell-based or functional assay
[7] = biological target: RSV prefusion F, subtype A (preF, DS-Cav1 trimer) (Respiratory syncytial virus subtype A, UniProt P03420 26-513); experiment: BLI, IgG apparent affinity
[8] = biological target: RSV F on recombinant mKate-RSV A2 virus (Respiratory syncytial virus A2, UniProt P03420 26-574); experiment: cell-based or functional assay
[9] = biological target: RSV F on recombinant mKate-RSV B 18537 virus (Respiratory syncytial virus B 18537, UniProt P13843 26-574); experiment: cell-based or functional assay

B1: ADI-41567 (antibody, V domains shown)
VH: QVQLQQWGAGLLKPSETLSLTCEVYGGSFSGYYWTWFRQPPGEGLEWIGEINHSGGTNYNPSLKSRVTMSVDASINQFSLQLSSVTAADTSVYYCARGHYYNTNDFYGLFDYWGQGTLVTVSS
VL: DIRLTQSPSFLSASVGDRVTITCRASQGISTYLAWYQQKPGKAPKLLLYAASTLHSGVPSRFSGSGSGTEFTLTISSLQPEDFATYYCQQLNRYPPSTFGPGTKLEIK
notes: also called Ab 845; Antibody Number 845
[1]
  Kd: 0.717 nM
[2]
  Neutralization IC50 (RSV subtype A): 0.0505 µg/mL
[3]
  binding result: no binding (tested: 100 nM antigen)

B2: ADI-41454 (antibody, V domains shown)
VH: QVQLVQSGAEVKKPGASVKVSCKASGYTFTHFGISWVRQAPGQGLEWMGWISIYNGNTNYAQKIQGRATMTTDASTSTAYMELRSLTSDDTAVYYCAREPPSTTAAATSDYWGQGTLVTVSS
VL: DIVMTQSPLSLPVTLGQPASISCRSSQSLVYIEGNTYLSWFQQRPGQSPRRLIYKVSNRDSGVPDRFSGSGSGTDFTLKISRVEAEDVGLYYCMQGTHWPRTFGQGTKLEIK
notes: IgG1; also called Ab 738
[4]
  binding result: no binding (tested: 100 nM antigen)
[5]
  Kd: 0.588 nM
[6]
  Neutralization IC50 (RSV subtype A): 0.88 µg/mL

B3: ADI-21069 (antibody, V domains shown)
VH: EVQLVESGAEVRKPGASVKVSCKASGYTFSSNAISWVRQAPGQGLEWMGYISVFNGNTKYAQNLQGRVTMTTDTATSTVYMELRSLRYDDTAIYYCARESLGMGGFYFDHWGQGTLVTVSS
VL: SYELTQPPSVSVAPGQTARITCGANNIGSDSVHWYQQKPGQAPVLVVFDDRDRPSGIPERFSGSNSGNTATLTISRVEAGDEADYYCQVWMTSDRSVFGGGTKLTVL
[7]
  Kd: 0.123 nM
[8]
  Neut IC50 (ug/ml) subtype A: 0.11 µg/mL
[9]
  Neut IC50 (ug/ml) subtype B: 0.26 µg/mL

B4: ADI-36673 (antibody, V domains shown)
VH: QVQLVQSGGGLVKPGGSLRLSCAASGFTFRDFYMSWIRQAPGKGLEWVSNISPSSTYTNYADSVKGRFTISRDNAKNSLYLQMNSLRAEDTAVYYCVKSEGYSSGWYDYWGQGTLVTVSS
VL: QPVLTQPPSVSGAPGQRVTISCTGSSSNIGAGYDVNWYHQLPGAAPKLLIYTNSNRPSGVPDRFSGSKSGTSASLAITGLQAEDEADYYCQSYDSSLSGYVFGTGTKLTVL
notes: also called Ab 830; Antibody Number 830
[1]
  Kd: 0.62 nM
[2]
  Neutralization IC50 (RSV subtype A): 0.02 µg/mL
[3]
  binding result: no binding (tested: 100 nM antigen)

B5: ADI-41591 (antibody, V domains shown)
VH: QVTLKESGGGLVKPGGSLRLSCAASGFTFSDYYMSWIRQAPGKGLEWVSYISSSSSYTNYADSVKGRFTISRDNAKNSLYLQMNSLRAEDTAVYYCAREAVAAAGTDYFDYWGQGTLVTVSS
VL: QSVLTQPPSVSGAPGQRVTISCTGSSSNIGAGYDVHWYQQPPRTAPKLLIYGNSNRPSGVPDRFSGSKSGTSASLAITGLQAEDEADYYCQSYDSSLSGYVFGTGTKLTVL
notes: also called Ab 865; Antibody Number 865
[1]
  Kd: 4.26 nM
[2]
  Neutralization IC50 (RSV subtype A): > 25 µg/mL
[3]
  binding result: no binding (tested: 100 nM antigen)

B6: ADI-21080 (antibody, V domains shown)
VH: EVQLLESGGGLVKPGGSLRLSCEVSGFRLSDYYMSWIRQAPGKGLEWVSHISGGSTYTNYADSVKGRFTISRDNGKKSMYLQMNSLRAEDTALYYCAKWGSGGPEAFDIWGRGTMVTVSS
VL: QSALIQPPSVSGAPGQRVTISCTGSSSNIGAGYDVHWYQQIPGTAPKLLIYGNNNRPSGVPDRFSGSKSGTSASLAITGLQAEDEADYYCQSYDNSLSGSVVFGGGTKLTVL
[7]
  Kd: 0.36 nM
[8]
  Neut IC50 (ug/ml) subtype A: 0.1 µg/mL
[9]
  Neut IC50 (ug/ml) subtype B: 0.17 µg/mL

B7: ADI-41787 (antibody, V domains shown)
VH: EVQLLESGGGVVQPGRSLRLSCAASGFTFSSSGMHWVRQAPGKGLEWVAIISSDGSKHYYADSVKGRFTISRDNSKNTLYLEMNSLRAEDSAVYYCAREGVWSGFFVDTGTDFRHHGMDVWGQGTTVTVSS
VL: SYELTQPPSVSVSPGQTARITCSGDALPKKFAFWYQQKSGQAPLLVIHEDNKRPSGIPERFSGSSSGTLATLTISGAQVEDEADYYCYSIDTSANLGVFGGGTKLTVL
[1]
  Kd: 1.56 nM
[2]
  Neutralization IC50 (RSV subtype A): 0.38 µg/mL
[3]
  binding result: no binding (tested: 100 nM antigen)

B8: ADI-21078 (antibody, V domains shown)
VH: EVQLVESGGGLVKPGGSLRLSCAASGFRLSDYYMSWIRQAPGKGLEWISDISGGSTYTNYADSVKGRLTISRDNAQNSLYLQMNSLRAEDTAVYYCARWGSGGPDAFHFWGQGTTVTVSS
VL: QSVLTQPPSVSGVPGQRVTISCTGSRSNIGAGYDVHWYRQLPGTAPKLLIYGNSNRPSGVPDRFSGSKSGTSASLAITGLQADDEADYYCQSYDSSLSGSVIFGGGTKVTVL
[7]
  Kd: 0.311 nM
[8]
  Neut IC50 (ug/ml) subtype A: 0.03 µg/mL
[9]
  Neut IC50 (ug/ml) subtype B: 0.2 µg/mL

B9: ADI-41809 (antibody, V domains shown)
VH: QVTLKESGGGLVQPGGSLRLSCAASGFTFSNYAMSWVRQAPGKGLEWVSAISHSDSRTFYADSVKGRFTISRDNSKNTLFLQMDSLRAHDTAVYYCANVDPSSVTYYGYYYGMDVWGQGTTVTVSS
VL: QSVLTQPPSASGTPGQRVTISCSGSSSNIGKNFVYWYQQFPGTAPKRLIYRNNQRPSGVPDRFSGSRSGTSASLAISGLRSEDEADYYCATWDDSLSGWVFGGGTKLTVL
[1]
  Kd: 2.65 nM
[2]
  Neutralization IC50 (RSV subtype A): > 25 µg/mL
[3]
  binding result: no binding (tested: 100 nM antigen)

B10: ADI-41756 (antibody, V domains shown)
VH: EVQLLESGGGVVQPGRSLRLSCAASGLSFNSFGMHWVRQAPGKGLEWVAVIAYDGSNKYYADSVKGRFSISRDNSKNTLYLQMDSLRAEDTAVYYCAKAEAPNFSWSGYLSAFDIWGQGTTVTVSS
VL: QPVLTQPASVSGSPGQSVTVSCTGTSDDVGDYNYVSWYQQHPGKAPKLLIFEVSDRPSGVSTRFSGSKSGNTASLTISGLQTEDEADYYCSSYTSRNLYVFGTGTKVTVL
[1]
  Kd: 29 nM
[2]
  Neutralization IC50 (RSV subtype A): > 25 µg/mL
[3]
  binding result: no binding (tested: 100 nM antigen)

B11: ADI-36678 (antibody, V domains shown)
VH: EVQLVQSGGGLVQPGGSLRVSCAASGLTVSTNYMSWVRQLPGKGLEWVSVIYSGGNTYYADSVKGRFTISRDNSKNIVYLEMNSLRIEDTAVYYCARAHLNNWFVSVTDTKDYYFDYWGQGTLVTVSS
VL: SYELTQPPSVSVLPGQTASITCSGDKLGDKYASWYQQKPGQSPILVVFQDDKRPSGIPERFSGSNSGNTATLTISGTQATDEADYYCQACDRNTGVFGTGTKLTVL
[1]
  Kd: 0.716 nM
[2]
  Neutralization IC50 (RSV subtype A): 0.006 µg/mL
[3]
  binding result: no binding (tested: 100 nM antigen)

B12: ADI-41790 (antibody, V domains shown)
VH: QVQLVQSGAEVKKPGSSVKVSCKASGGTFSNYGISWVRQAPGQGLERLGGIIPIYGTANHAQNFQGRVTITADESTSTAYMELSSLRSEDTAVYYCARDGTFVRYYGMDVWGQGTTVTVSS
VL: EIVLTQSPATLFLSPGERATLSCRASQSVSNYLAWFQQKPGQAPRLLIYDTSIRATGIPARFSGSGSGTDFTLTISSLEPEDFAFYYCQQRSNWPPTFGGGTKLEIK
[1]
  Kd: 3.15 nM
[2]
  Neutralization IC50 (RSV subtype A): > 25 µg/mL
[3]
  binding result: no binding (tested: 100 nM antigen)

B13: ADI-41590 (antibody, V domains shown)
VH: EVQLVQSGGGLVKPGGSLRLSCTASGFTFSDHYMSWIRQAPGKGLEWISYISSTSSFTNYANSVKGRFTISRDNAKNSLYLQMNSLRAEDTAVYYCARDRSILYSGYSLDYWGQGTLVTVSS
VL: DIQMTQSPSSLSASVGDRVTISCRASQSILNYLNWYQHKPGKAPKLLIYAASSLQSGVPSRFSGSGSGTDFTLTISGLQPEDFATYYCQQSDSTRTFGQGTKVEIK
[1]
  Kd: 3.02 nM
[2]
  Neutralization IC50 (RSV subtype A): > 25 µg/mL
[3]
  binding result: no binding (tested: 100 nM antigen)

B14: ADI-36676 (antibody, V domains shown)
VH: EVQLLESGGGVVQPGRSLRLSCAASGFSFRNYDMHWVRQAPGKGLEWVAIISYDGSNKYADSVKGRFTISRDTSKNTLYLQMNSLRVEDTAVYYCARADSSGYYKGSEYFQHWGQGTLVTVSS
VL: SYELTQLPSVSVAPGQTARITCGGNNIGTKSVQWYQHKPGQAPVLVVYDDSDRPSDIPERFSGSNSGNTATLTISRVEAGDEADYYCQVWDSSSDHYVFGTGTKLTVL
notes: also called Ab 832; Antibody Number 832
[1]
  Kd: 0.282 nM
[2]
  Neutralization IC50 (RSV subtype A): 0.006 µg/mL
[3]
  binding result: no binding (tested: 100 nM antigen)

B15: ADI-41578 (antibody, V domains shown)
VH: EVQLVESGGGVVQPGRSLRLSCAASGFTLSSYVMDWVRQAPGKGLEWVAVISYDGSSKYYADSVKGRFTVSRDNSNNAMYLQMNSLRAEDTAVYYCARDPYYDILTGYSYFDYWGHGTTVTVSS
VL: SYVLTQPPSVSGAPRQTATITCGGNNIGSKSVNWYQQKPGQAPVLVVYDDSARPSGIPERFSGSNSGNTATLTVSSVEAGDEADYFCQVWDTSSAPYPWVFGGGTKLTVL
notes: also called Ab 852; Antibody Number 852
[1]
  Kd: 0.249 nM
[2]
  Neutralization IC50 (RSV subtype A): 0.0398 µg/mL
[3]
  binding result: no binding (tested: 100 nM antigen)

B16: ADI-41452 (antibody, V domains shown)
VH: QVQLVQSGAELKKPGASVKVSCKASGHTFATYAIHWVRQAPGQSLEWLGWINTANGDTKYSQKFRATVTIHGDTSANTVYLELSRLRSEDTAVYYCASPPLVGAINLEFWGPGTLVTVSS
VL: QSVLTQPASVSGSVGQSITISCTGTSSDVGGYNSVSWYQHHPDKAPKLIIYEVSNRPSGVSHRFSGSKSGNTASLTISGLQAEDEADYYCSSYTTSDTLIFGGGTKVTVL
notes: IgG1; also called Ab 736
[4]
  binding result: no binding (tested: 100 nM antigen)
[5]
  Kd: 3.33 nM
[6]
  Neutralization IC50 (RSV subtype A): > 25 µg/mL
